This note sets out measurements from article PMC4034690.

The target in experiment [1] is γ-TuSC^Spc98Δ1–156 [S. cerevisiae]. As to the kind of experiment: GST pull-down, immunoblot anti-Tub4 (bound Tub4), Li-cor quantification. The conditions noted are these: 300 nM Spc110 1-220; read off a plot; scale: %. A general note: Immunoblotting shows a protein as a band on a membrane.
For experiment [2] the target is unchanged. The experiment in a line: GST pull-down, immunoblot anti-His (bound Spc97/Spc98), Li-cor quantification. The conditions noted are these: 300 nM Spc110 1-220; read off a plot; scale: %.
The target in experiment [3] is γ-tubulin small complex (γ-TuSC) [S. cerevisiae]. The experiment in a line: GST pull-down, immunoblot anti-Tub4 (bound Tub4), Li-cor quantification. The conditions noted are these: 300 nM Spc110 1-220; read off a plot.
For experiment [4] the target is unchanged. The experiment in a line: GST pull-down, immunoblot anti-His (bound Spc97, Spc98), Li-cor quantification. The conditions noted are these: 300 nM Spc110 1-220; read off a plot.
Experiment [5] concerns the target GST-Spc110^1–220-2D (S. cerevisiae) (UniProt P32380).
Experiment [6] deals with GST-Spc110^1–220-3D (S. cerevisiae) (UniProt P32380).
For experiment [7], the target named is GST-Spc110^1–220-5D (S. cerevisiae) (UniProt P32380).
In experiment [8] the target is γ-tubulin small complex (γ-TuSC) (S. cerevisiae) (UniProt P53378). As to the kind of experiment: SEC; as a3 (TB150, Superose 6 10/300) but with the concentrations of γ-TuSC and Spc110^1–220 variants doubled (Figure 2—figure supplement 2A). On the technique in general: In gel filtration, larger molecules generally elute earlier.
Experiment [9] has the same target. The experiment in a line: SEC; γ-TuSC mixed with GST-Spc110^1–220 variant in 1:4 molar ratio (2.3:9.3) in TB150 buffer, 1 hr at 4°C, Superdex 200 10/300 or Superose 6 10/300; shift of γ-TuSC to the void volume; fractions by SDS-PAGE and silver staining; void-volume fraction also by negative-stain electron microscopy.
The target of experiment [10] is γ-TuSC^Spc98Δ1–156, P53378;P38863;P53540. The experiment in a line: GST pull-down, immunoblot anti-Tub4 (bound Tub4), Li-cor quantification. The conditions noted are these: 300 nM Spc110 1-220; parent: est. 42; read off a plot; scale: %.
For experiment [11], the target named is γ-tubulin small complex (γ-TuSC), P53378;P38863;P53540. The experiment is described as above. As to conditions: 300 nM Spc110 1-220; read off a plot.
In experiment [12] the target is γ-TuSC^Spc98Δ1–156, P53378;P38863;P53540. As to the kind of experiment: GST pull-down, immunoblot anti-His (bound Spc97/Spc98), Li-cor quantification. As to conditions: 300 nM Spc110 1-220; parent: est. 6; read off a plot; scale: %.
Experiment [13] concerns the target γ-tubulin small complex (γ-TuSC), P53378;P38863;P53540. The experiment is described as above. As to conditions: 300 nM Spc110 1-220; read off a plot.

A value given as a limit tells only on which side of the number the result lay.

Consider “GST-Spc110^1–220 (wild type, from E. coli, non-phosphorylated) mutant S36D; S60D; T64D; T68D; S91D [S. cerevisiae] / γ-TuSC^Spc98Δ1–156 [S. cerevisiae] chain 1 S36D, chain 1 S60D, chain 1 T64D, chain 1 T68D, chain 1 S91D”, for which the response was determined as 42 in [1] and 6 in experiment [2].
Take “GST-Spc110^1–220 (wild type, from E. coli, non-phosphorylated) mutant S36D; S91D [S. cerevisiae] / γ-tubulin small complex (γ-TuSC) [S. cerevisiae] chain 1 S36D, chain 1 S91D”: the response in experiment [3] and in [4] was 3300 RU each time.
As to “γ-tubulin small complex (γ-TuSC), P53378 1-473; P38863 1-823; P53540 1-846”, the in vitro MT nucleation activity (MTs/field normalised to buffer only); 3 μM γ-TuSC pre-incubated with 15 μM GST-Spc110^1–220 variant; compared to the buffer control and γ-TuSC alone in experiment [5], in experiment [6] and in [7] was 3 fold throughout. Moreover, the stoichiometry N in [8] is 2; in experiment [9] it was above 14.
Take “GST-Spc110^1–220 (wild type, from E. coli, non-phosphorylated) mutant S60D; T64D; T68D [S. cerevisiae] / γ-tubulin small complex (γ-TuSC) [S. cerevisiae] chain 1 S60D, chain 1 T64D, chain 1 T68D”: the response is 10000 RU in experiment [3] and 7400 RU in experiment [4].
Taken in the same sequence, the figures for “GST-Spc110^1–220 (wild type, from E. coli, non-phosphorylated) mutant S36D; S60D; T64D; T68D; S91D [S. cerevisiae] / γ-tubulin small complex (γ-TuSC) [S. cerevisiae] chain 1 S36D, chain 1 S60D, chain 1 T64D, chain 1 T68D, chain 1 S91D” were 11000 RU and 8300 RU.
On to “GST-Spc110^1–220-5D (from UniProt P32380) T18D; CM1-QA”, for which the response in experiment [10] was 32; in [12], 9. Also, the percent of parent in experiment [11] stood at 40%; in [13], 16%.
In the same order, the values of “GST-Spc110^1–220-5D (from UniProt P32380) CM1-QA” are 34, 3, 49% and 45%.

What is called stoichiometry N is a count of units in the complex or per binding partner.
